These results are taken from IntAct's records for PubMed 22854040.

Sequences and labels used below:
B1: Ras-related protein Rab-8A (Homo sapiens), P61006 (parent)
chain: MAKTYDYLFKLLLIGDSGVGKTCVLFRFSEDAFNSTFISTIGIDFKIRTIELDGKRIKLQIWDTAGQERFRTITTAYYRGAMGIMLVYDITNEKSFDNIRNWIRNIEEHASADVEKMILGNKCDVNDKRQVSKERGEKLALDYGIKFMETSAKANINVENAFFTLARDIKAKMDKKLEGNSPQGSNQGVKITPDQQKRSSFFRCVLL

This assay covers variants of B1. As to conditions: with tfr1_human TFRC.
Regarding T22N, the “effect of a mutation on the interaction” value is on record as “decreasing interaction”.
